Changes are numbered by the printed parent chain. Names may count otherwise.
Experiments:
[1] = biological target: T1, recombinant human CD160 protein, soluble form, with a C-terminal tag of 6 histidine residues (R&D SYSTEMS) (human, UniProt O95971 27-159, limits assumed, biotinylated with EZ-Link sulfo-NHS-LC-biotin for BLI and ELISA; not biotinylated when immobilised on the CM5 chip for SPR); test: BLI (Octet K2), biotinylated hCD160-His on streptavidin sensor, antibody as analyte
T1 construct: domain: soluble form; Bought protein; also called hCD160-his; biotinylated CD160
T1 sequence: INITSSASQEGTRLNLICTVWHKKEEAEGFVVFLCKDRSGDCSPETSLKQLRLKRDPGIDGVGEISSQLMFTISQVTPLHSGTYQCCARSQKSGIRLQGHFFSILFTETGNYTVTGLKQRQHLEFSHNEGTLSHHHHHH
Procedure: (§1) All the experiments were carried out at 30° C. in the running buffer recommended by Fortebio (PBS with 0.1% (p/v) of bovine serum albumin (BSA) and 0.02% (v/v) Tween-20). This buffer was also used for diluting the various ligands and analytes. The samples deposited in a 96-well microplate (cat #738-0026, Dutscher) were shaken at 1000 revolutions per minute.
Between the measurements, the surfaces of the biosensor were regenerated by exposing them to 3 cycles of 5 sec in 10 mM glycine, pH 2, followed by 5 sec in running buffer. The association and dissociation phases were measured for 300 seconds. All the measurements were corrected for the basic drift by subtracting a reference well with a ligand subjected only to the running buffer.
(§2) The dissociation constants and the association (kₒₙ) and dissociation (kdis) rate constants for each antibody were calculated by applying a 1:1 interaction model, with overall mathematical modelling of curves (fit) (Rmax bound by the sensor) on the ForteBio 9.0 data analysis software.

[2] = biological target: T1, recombinant human CD160 protein, …; test: BLI, biotinylated CD160 at 10 nM on streptavidin sensor, antibody 3.13-100 nM
Procedure: as §1, §2

[3] = biological target: T2, human CD160 (CD160 GPI isoform) on cells (human, UniProt O95971 25-159, GPI anchor); test: flow cytometry on CHO-hCD160 transfectants
T2 construct: whole, on cells; Used for all cells said to carry human CD160: transfected CHO-S and E300 cells and cells that carry it naturally (YT2C2, blood NK, CD8+ T, T CD4, CLL cells); also called hCD160; CHO-S-hCD160 (clone 2G10)
T2 sequence (looked up): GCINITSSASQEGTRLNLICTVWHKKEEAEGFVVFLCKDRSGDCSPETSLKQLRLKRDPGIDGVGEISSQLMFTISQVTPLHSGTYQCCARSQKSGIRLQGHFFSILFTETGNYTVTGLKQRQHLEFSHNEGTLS
Procedure: The binding capacity of the anti-CD160 H7 antibodies and of the variants (D12 and A09) thereof in the IgG4 and IgG1 format and in the IgG1 E345K format was evaluated during the labelling of surface CD160 expressed in a recombinant line CHO-S-hCD160 (clone 2G10) in comparison with non-transfected CHO-S cells, by measuring the median fluorescence index (MFI) (see FIG. 1). For this, 5×10⁺⁵ 2G10 (CHO-S-CD160) and non-transfected CHO-S cells were labelled with 2 μg of each of these antibodies and also with the appropriate control isotypes. In FIG. 1, all the anti-CD160 tested (regardless of the isotype or the IgG format or the variant) specifically recognize human CD160 expressed recombinantly by the CHO-S cells.
In FIG. 1B, the IgG4 variants bind more efficiently to the CHO-hCD160 transfectants than H7 (which results in a median fluorescence increased by a factor of 2 compared with H7 IgG4 ELB01101 or with H7 IgG4 H310A-H435Q ELB01102), this being even in the presence of the H310A-H435Q mutations.

[4] = biological target: T2, human CD160 (CD160 GPI isoform) on cells; test: cell-based or functional assay
[5] = biological target: T1, recombinant human CD160 protein, …; test: BLI, biotinylated CD160 at 10 nM on streptavidin sensor, antibody 3.13-100 nM; remark: listed apart in the source
[6] = biological target: T1, recombinant human CD160 protein, …; test: SPR (Biacore), design close to Example 2
[7] = biological target: T1, recombinant human CD160 protein, …; test: BLI
[8] = biological target: T1, recombinant human CD160 protein, …; test: BLI (repeats Table 8)
[9] = biological target: T1, recombinant human CD160 protein, …; test: BLI, biotinylated CD160 at 10 nM on streptavidin sensor, antibody 3.13-100 nM; remark: listed apart in the source
Procedure: as §2

[10] = biological target: T1, recombinant human CD160 protein, …; test: BLI (repeats Table 7)
[11] = biological target: T1, recombinant human CD160 protein, …; test: BLI (repeats Table 9)
[12] = biological target: T1, recombinant human CD160 protein, …; test: BLI, biotinylated CD160 at 10 nM on streptavidin sensor, antibody 3.13-100 nM; remark: listed apart in the source

B1: chimerized antibody issued from CL1-R2 in the human IgG1 format (antibody, V domains shown)
VH: QVHLQQSGAELARPGASVKLSCKASGYTFTDYWMQWIKQRPGQGLEWIGSIYPGDDDARYTQKFRGKATLTADKSSSTAYMQLSSLASEDSAVYYCARRGIAAVVGGFDYWGQGTTLTVSS
VL: DIVLTQSPATLSVTPGNSVSLSCRASQSISNHLHWYQQKSHESPRLLIKYASQSISGIPSRFSGSGSGTDFTLSINSVETEDFGMYFCQQSNSWPLTFGAGTKLELK
notes: also called chIgG1; chimeric IgG1
Q: B1 was tested. Which “Binding response, at 50 nM of anti-CD160” value [1] did it give?
A: 0.41 nm (arbitrary units)

Q: And the Kd [1]?
A: 14.3 nM

Q: What about the koff [1] of the same binder?
A: 0.00297 s⁻¹

Q: And the kon [1]?
A: 208000 M⁻¹ s⁻¹

B2: CL1-R2 murine monoclonal anti-human CD160 antibody (antibody, V domains shown)
VH: B1 VH
VL: B1 VL
notes: Murine IgG1; also called parental CL1-R2; murine anti-CD160 IgG1
Q: With B2 as the binder, how does the “Binding response, at 50 nM of anti-CD160” value [1] read?
A: 0.6 nm (arbitrary units)

Q: And the Kd [1]?
A: 15.4 nM

Q: What about the koff [1] of the same binder?
A: 0.00283 s⁻¹

Q: What about the kon [1] of the same binder?
A: 183000 M⁻¹ s⁻¹

B3: chimerized antibody issued from CL1-R2 in the human IgG4 format (antibody, V domains shown)
VH: B1 VH
VL: B1 VL
notes: also called chIgG4; chimeric IgG4
Q: With B3 as the binder, how does the “Binding response, at 50 nM of anti-CD160” value [1] read?
A: 0.41 nm (arbitrary units)

Q: And the Kd [1]?
A: 14.8 nM

Q: And the koff [1]?
A: 0.00323 s⁻¹

Q: What about the kon [1] of the same binder?
A: 218000 M⁻¹ s⁻¹

B4: A09 in the IgG1 E345K format (antibody)
heavy: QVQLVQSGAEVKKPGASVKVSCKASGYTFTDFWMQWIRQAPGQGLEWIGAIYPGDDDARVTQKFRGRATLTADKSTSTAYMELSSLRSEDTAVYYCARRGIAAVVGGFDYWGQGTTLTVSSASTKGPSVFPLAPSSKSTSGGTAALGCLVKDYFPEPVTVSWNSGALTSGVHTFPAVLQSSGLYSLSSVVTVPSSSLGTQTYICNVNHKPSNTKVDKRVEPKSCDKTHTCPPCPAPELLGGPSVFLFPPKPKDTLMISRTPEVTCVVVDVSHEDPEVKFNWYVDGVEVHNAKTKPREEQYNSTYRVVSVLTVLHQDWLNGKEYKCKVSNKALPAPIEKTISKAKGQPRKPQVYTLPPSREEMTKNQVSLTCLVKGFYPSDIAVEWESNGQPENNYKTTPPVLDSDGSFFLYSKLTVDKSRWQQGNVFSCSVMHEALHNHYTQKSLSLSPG
light: EIVLTQSPATLSLSPGERATLSCRASQSISNHLHWYQQKPGQAPRLLIKYASQSISGIPARFSGSGSGTDFTLTISSLEPEDFAVYFCQQSNSWPLTFGGGTKVEIKRTVAAPSVFIFPPSDEQLKSGTASVVCLLNNFYPREAKVQWKVDNALQSGNSQESVTEQDSKDSTYSLSSTLTLSKADYEKHKVYACEVTHQGLSSPVTKSFNRGEC
notes: also called ELB02114
Q: Which Kd [2] does the source give for B4 here?
A: 1.93 nM

Q: And the koff [2]?
A: 0.000825 s⁻¹

Q: And the kon [2]?
A: 427000 M⁻¹ s⁻¹

Q: And the “median fluorescence, factor against H7 IgG1” value [3]?
A: 3 fold

Q: What about the “EC50 of IFN-gamma production by NK cells, additional improvement against the IgG1 variants” value [4] of the same binder?
A: 2 logs

Q: What about the “EC50 of IFN-gamma production by NK cells, improvement against ELB02101” value [4] of the same binder?
A: 4 logs

B5: F04 IgG4 S228P/R409K (antibody)
heavy: QVQLVQSGAEVKKPGASVKVSCKASGYTFSDYWMQWIRQAPGQGLEWIGAIYPGDDDARYTQKFRGRATLTADKSTSTAYMELSSLRSEDTAVYYCARRGIAAVVGGFDYWGQGTTLTVSSASTKGPSVFPLAPCSRSTSESTAALGCLVKDYFPEPVTVSWNSGALTSGVHTFPAVLQSSGLYSLSSVVTVPSSSLGTKTYTCNVDHKPSNTKVDKRVESKYGPPCPPCPAPEFLGGPSVFLFPPKPKDTLMISRTPEVTCVVVDVSQEDPEVQFNWYVDGVEVHNAKTKPREEQFNSTYRVVSVLTVLAQDWLNGKEYKCKVSNKGLPSSIEKTISKAKGQPREPQVYTLPPSQEEMTKNQVSLTCLVKGFYPSDIAVEWESNGQPENNYKTTPPVLDSDGSFFLYSKLTVDKSRWQEGNVFSCSVMHEALHNQYTQKSLSLSLG
light: B4 light
notes: also called ELB01106
Q: Which Kd [5] does the source give for B5 here?
A: 1.63 nM

Q: What about the koff [5] of the same binder?
A: 0.000736 s⁻¹

Q: What about the kon [5] of the same binder?
A: 453000 M⁻¹ s⁻¹

Q: What about the “Gain in KD/respective IgG” value [6] of the same binder?
A: 3.5 fold

Q: What about the Kd [6] of the same binder?
A: 4.1 nM

Q: What about the koff [6] of the same binder?
A: 0.000721 s⁻¹

Q: What about the kon [6] of the same binder?
A: 176000 M⁻¹ s⁻¹

Q: What about the “Gain in KD/respective IgG” value [7] of the same binder?
A: 1.8 fold

Q: And the Kd [8]?
A: 1.63 nM

Q: What about the koff [8] of the same binder?
A: 0.000736 s⁻¹

Q: What about the kon [8] of the same binder?
A: 453000 M⁻¹ s⁻¹

B6: F04 in the IgG1 E345K format (antibody)
heavy: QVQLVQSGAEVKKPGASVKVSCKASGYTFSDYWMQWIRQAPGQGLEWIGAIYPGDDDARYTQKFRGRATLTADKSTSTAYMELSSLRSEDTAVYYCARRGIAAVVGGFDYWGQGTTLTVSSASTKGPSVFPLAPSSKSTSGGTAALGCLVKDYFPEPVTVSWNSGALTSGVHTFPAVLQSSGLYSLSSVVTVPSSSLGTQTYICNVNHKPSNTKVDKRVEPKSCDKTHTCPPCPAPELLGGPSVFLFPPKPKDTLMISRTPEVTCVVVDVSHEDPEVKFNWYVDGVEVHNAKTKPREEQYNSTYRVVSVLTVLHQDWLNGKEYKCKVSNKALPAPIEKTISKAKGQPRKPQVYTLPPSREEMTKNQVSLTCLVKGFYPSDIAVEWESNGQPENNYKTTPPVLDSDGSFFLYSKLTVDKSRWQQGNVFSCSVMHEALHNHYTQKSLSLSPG
light: B4 light
notes: also called ELB02113
Q: With B6 as the binder, how does the Kd [2] read?
A: 1.55 nM

Q: And the koff [2]?
A: 0.000662 s⁻¹

Q: What about the kon [2] of the same binder?
A: 427000 M⁻¹ s⁻¹

Q: And the “EC50 of IFN-gamma production by NK cells, additional improvement against the IgG1 variants” value [4]?
A: 2 logs

Q: What about the “EC50 of IFN-gamma production by NK cells, improvement against ELB02101” value [4] of the same binder?
A: 4 logs

B7: H7 IgG4 S228P/R409K/H310A/H435Q (antibody)
heavy: B5 heavy with S30T, A50S
light: B4 light
notes: also called ELB01102; H7 IgG4 H310A-H435Q
Q: Which Kd [5] does the source give for B7 here?
A: 2.91 nM

Q: And the koff [5]?
A: 0.00148 s⁻¹

Q: And the kon [5]?
A: 507000 M⁻¹ s⁻¹

Q: What about the Kd [6] of the same binder?
A: 14.5 nM

Q: And the koff [6]?
A: 0.00297 s⁻¹

Q: And the kon [6]?
A: 205000 M⁻¹ s⁻¹

Q: And the Kd [8]?
A: 2.91 nM

Q: And the koff [8]?
A: 0.00148 s⁻¹

Q: What about the kon [8] of the same binder?
A: 507000 M⁻¹ s⁻¹

B8: H7 IgG4 S228P/R409K (antibody)
heavy: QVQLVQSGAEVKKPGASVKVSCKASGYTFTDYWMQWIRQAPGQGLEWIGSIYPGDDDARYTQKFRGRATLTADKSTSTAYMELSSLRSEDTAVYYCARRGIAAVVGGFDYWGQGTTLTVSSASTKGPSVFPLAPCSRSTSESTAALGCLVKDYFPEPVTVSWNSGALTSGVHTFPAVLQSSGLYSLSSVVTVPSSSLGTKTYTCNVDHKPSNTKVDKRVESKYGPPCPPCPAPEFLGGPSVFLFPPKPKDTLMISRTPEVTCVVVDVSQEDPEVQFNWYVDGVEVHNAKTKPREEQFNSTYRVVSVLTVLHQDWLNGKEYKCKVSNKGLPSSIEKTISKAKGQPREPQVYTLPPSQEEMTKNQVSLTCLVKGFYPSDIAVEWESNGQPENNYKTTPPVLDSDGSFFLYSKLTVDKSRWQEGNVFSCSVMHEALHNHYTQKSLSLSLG
light: B4 light
notes: also called ELB01101; H7 IgG4 WT
Q: What does the source list for B8?
A: Kd [9]: 2.61 nM; koff [9]: 0.00123 s⁻¹; kon [9]: 469000 M⁻¹ s⁻¹; Kd [6]: 13.1 nM; koff [6]: 0.00285 s⁻¹; kon [6]: 218000 M⁻¹ s⁻¹; Kd [10]: 2.61 nM; koff [10]: 0.00123 s⁻¹; kon [10]: 469000 M⁻¹ s⁻¹; Binding response, at 50 nM of anti-CD160 [1]: 0.6 nm (arbitrary units); Kd [1]: 4.49 nM; koff [1]: 0.00157 s⁻¹; kon [1]: 350000 M⁻¹ s⁻¹

B9: F04 in the IgG1 format (antibody)
heavy: not shown
light: B4 light
notes: also called ELB02103
Q: Which Kd [11] does the source give for B9 here?
A: 1.43 nM

Q: What about the koff [11] of the same binder?
A: 0.000531 s⁻¹

Q: What about the kon [11] of the same binder?
A: 371000 M⁻¹ s⁻¹

Q: And the “Gain in KD/respective IgG” value [6]?
A: 3.3 fold

Q: And the Kd [6]?
A: 3.6 nM

Q: What about the koff [6] of the same binder?
A: 0.000726 s⁻¹

Q: And the kon [6]?
A: 200000 M⁻¹ s⁻¹

Q: What about the “Gain in KD/respective IgG” value [7] of the same binder?
A: 2.1 fold

Q: And the “EC50 of NK cell activation (IFN-γ, CD69), improvement against ELB02101” value [4]?
A: 2 to 3 logs

Q: What about the Kd [12] of the same binder?
A: 1.43 nM

Q: And the koff [12]?
A: 0.000531 s⁻¹

Q: What about the kon [12] of the same binder?
A: 371000 M⁻¹ s⁻¹

From patent publication US20200109211A1 (ELSALYS BIOTECH, published 2020)
